Kd data for one molecule are collected here from doi:10.1101/2025.07.08.663703, “Recruitment of Mre11 to recombination sites during meiosis” (bioRxiv, 2025).

In the experiment the target is T1, yeast Smt3 (Smt3 6xHis) (yeast, UniProt Q12306 1-101 = SUMO).
T1 construct: Smt3 (SUMO), yeast; Uniformly 13C,15N labelled for the NMR experiments; also called SUMO; U-[13C,15N]; Smt3; source: E. coli BL21 (DE3)pLysS, purified (Ni-NTA)
In words: ITC; 2 mM peptide in the syringe, 150 μM or 300 μM Smt3 in the cell; 20 mM NaPi 100 mM NaCl pH 7.5, 10% DMSO, 25°C; single binding site model. The settings on record: both partners purified. On the technique in general: ITC needs no label: the signal is the heat of the interaction.

A word on the Kd: it is a measure of binding affinity in units of concentration. A lower Kd goes with tighter binding.

T1 sequence (Q12306 whole entry): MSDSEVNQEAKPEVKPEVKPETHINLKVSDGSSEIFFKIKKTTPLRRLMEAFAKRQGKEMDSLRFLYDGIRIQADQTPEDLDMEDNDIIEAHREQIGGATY

As to ENDIIMVSTDE [synthetic Mre11-SIM3 peptide, wild type], the Kd came out at 20 ± 10 µM.
